{"source": "paper PMC5344674", "key": {"[1]": {"molecular_target": "Orsay virus full-length δ protein (Orsay virus)", "assay": "native MS; direct infusion by nano-spray, 10ug/mL protein complex in 5% ACN, 0.1% FA, Orbitrap Fusion Lumos; non-denaturing conditions; intact pentamer"}, "[2]": {"molecular_target": "Orsay virus full-length δ protein (Orsay virus)", "assay": "AUC; sedimentation velocity, 27.6 μM δ, 20°C, 30,000 rpm, 50 mM TRIS pH 7.5, 250 mM NaCl; PCSA-DS molar mass transformation"}, "[3]": {"molecular_target": "Orsay virus mini-fusion protein CP-δ(215–485) (Orsay virus)", "assay": "SEC; Superdex 200 gel filtration; elution buffer 50 mM Tris-HCl pH 7.5, 250 mM NaCl, 2-ME, 1 mM NaN3"}, "[4]": {"molecular_target": "Orsay virus δ(1–66) (Orsay virus)", "assay": "crystal structure; hanging-drop vapor diffusion at 20°C; SAD with SeMet crystals, refined against native data at 2.22 Å"}}, "data": [{"substance": "Orsay virus full-length δ protein (natural protein)", "values": [{"measurement": "stoichiometry N", "setting": "[1]", "value": 5}, {"measurement": "stoichiometry N", "setting": "[2]", "value": 5}]}, {"substance": "Orsay virus mini-fusion protein CP-δ(215–485) (domain or fragment)", "values": [{"measurement": "stoichiometry N", "setting": "[3]", "value": 5}]}, {"substance": "Orsay virus δ(1–66) (domain or fragment)", "values": [{"measurement": "stoichiometry N", "setting": "[4]", "value": 5}]}]}
